Consider two variants from IntAct's records for PubMed 19800331.

B1: BAG family molecular chaperone regulator 1 (Homo sapiens), Q99933 (parent)
chain: MAQRGGARRPRGDRERLGSRLRALRPGREPRQSEPPAQRGPPPSGRPPARSTASGHDRPTRGAAAGARRPRMKKKTRRRSTRSEELTRSEELTLSEEATWSEEATQSEEATQGEEMNRSQEVTRDEESTRSEEVTREEMAAAGLTVTVTHSNEKHDLHVTSQQGSSEPVVQDLAQVVEEVIGVPQSFQKLIFKGKSLKEMETPLSALGIQDGCRVMLIGKKNSPQEEVELKKLKHLEKSVEKIADQLEELNKELTGIQQGFLPKDLQAEALCKLDRRVKATIEQFMKILEEIDTLILPENFKDSRLKRKGLVKKVQAFLAECDTVEQNICQETERLQSTNFALAE

Variants of B1 are the subject of one assay. To be noted: with hsp7c_human HSPA8, P11142.
Chain of hsp7c_human HSPA8, P11142 (P11142 whole entry, looked up): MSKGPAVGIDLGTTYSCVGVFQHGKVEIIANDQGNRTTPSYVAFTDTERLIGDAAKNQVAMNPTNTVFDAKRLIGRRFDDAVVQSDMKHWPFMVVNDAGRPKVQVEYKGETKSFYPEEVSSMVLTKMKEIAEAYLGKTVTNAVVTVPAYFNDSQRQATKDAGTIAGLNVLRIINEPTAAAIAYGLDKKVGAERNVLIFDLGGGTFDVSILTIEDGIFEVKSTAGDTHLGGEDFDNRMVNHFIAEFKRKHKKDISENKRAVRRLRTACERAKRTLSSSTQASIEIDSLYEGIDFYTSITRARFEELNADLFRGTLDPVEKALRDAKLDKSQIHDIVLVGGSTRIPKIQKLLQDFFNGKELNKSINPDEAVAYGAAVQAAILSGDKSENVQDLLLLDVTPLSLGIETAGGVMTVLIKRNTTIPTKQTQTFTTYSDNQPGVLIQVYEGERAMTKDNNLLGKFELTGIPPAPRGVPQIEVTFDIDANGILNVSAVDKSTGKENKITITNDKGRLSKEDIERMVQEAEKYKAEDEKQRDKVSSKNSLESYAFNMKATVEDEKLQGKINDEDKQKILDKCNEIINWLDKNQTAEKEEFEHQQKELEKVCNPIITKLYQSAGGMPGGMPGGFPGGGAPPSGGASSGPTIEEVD
Consider R308A, for which the “effect of a mutation on the interaction” value is on record as “decreasing interaction”.

In another assay the parent is B1. Conditions: with hsp7c_human HSPA8, P11142. The source holds these as a separate data set.
For the variant K309A, the “effect of a mutation on the interaction” value is “decreasing interaction”.
